# Assay results from patent US6790633.
# Biological target: rat brain farnesyl:protein transferase (rat) (UniProt Q04631)
# Assay: cell-based or functional assay
Substance,concentration required for inhibition,fold decline in affinity for the enzyme,"fold decrease in affinity for the enzyme against CVIM, as estimated by the concentration required for 50% inhibition",other results
CVIM with glutamic acid at the X position (peptide),> 40 µM,–,–,–
CVIM with glycine at the A2 position (peptide),–,–,–,concentration giving 50% inhibition: 8 µM
CVIM with glycine at the X position (peptide),> 40 µM,–,–,–
CVIM with lysine at the A2 position (peptide),–,> 50 fold,> 30 fold,–
CVIM with glutamic acid at the A2 position (peptide),–,> 50 fold,–,–
CVIM with lysine at the X position (peptide),> 40 µM,–,> 30 fold,–
